Key:
[1] = biological target: T1, human tissue non-specific alkaline phosphatase, amino acids 18-500 (hTNAP^18–500) (human, UniProt P05186, N-glycosylation (asparagine residues, seen in the crystal structure)); experiment: cryo-EM structure; hTNAP 18-500-scFv complex, 300 kV Titan Krios, C2 symmetry, 2.96 Å; conditions: both partners purified
T1 construct: human tissue non-specific alkaline phosphatase (ALPL gene), amino acids 18-500, the mature form with the GPI-anchor amidated residue Ser 501 removed; HA signal peptide at the N-terminus for secretion; TEV protease site before the Flag and His tags, no cleavage described; Dimer dominates in solution, with higher oligomers; octamer in the crystals; The same range was also made in Expi293F from …

[2] = biological target: the molecule itself; experiment: SEC; Superdex 200 Increase 10/300 GL, 20 mM HEPES pH 7.5, 150 mM NaCl; purified TNAP alone
[3] = biological target: the molecule itself; experiment: crystal structure; crystals of hTNAP 18-500 grown at acidic pH (PEG3350, sodium acetate pH 5.0; about 2.9 Å) and at basic pH (PEG4000, Tris pH 8.0, MgCl2; about 3.2 Å)
[4] = biological target: the molecule itself; experiment: SEC-MALS; static light scattering, WTC-030S5 column, 150 mM NaCl, 20 mM HEPES pH 7.5, 0.5 mL/min

B1: scFv of the TNAP agonist antibody JTALP001 (scFv, V domains shown)
VH: QVQLVQSGAEVKKPGASVKVSCKASGYTFTSYGISWVRQAPGQGLEWMGWISAYNGNTNYAQKLQGRVTMTTDTSTSTAYMELRSLRSDDTAVYYCARDKGWNSEGSLEYWGQGTLVTVSS
VL: DIVMTQSPSSVSASVGDRVTITCRASQGISNWLGWYQQKPGKAPKLLIYGASSLQSGVPSRFSGSGSGTDFTLTISSLQPEDFATYFCQQAYSLPLTFGGGTKLEIK
notes: scFv selected from a human scFv phage library against hTNAP 18-500; The Fc fragment of JTALP001 was replaced by a His-tag; also called scFv fragment; scFv antibody; source: Expi293F, purified (Nickel-chelating resin)
stoichiometry N [1]: 1 scFv per TNAP protomer

B2: TNAP^T167M (active site mutant of hTNAP 18-500) (enzyme, human, UniProt P05186 18-500, looked up)
chain: LVPEKEKDPKYWRDQAQETLKYALELQKLNTNVAKNVIMFLGDGMGVSTVTAARILKGQLHHNPGEETRLEMDKFPFVALSKTYNTNAQVPDSAGTATAYLCGVKANEGTVGVSAATERSRCNTTQGNEVTSILRWAKDAGKSVGIVTTMRVNHATPSAAYAHSADRDWYSDNEMPPEALSQGCKDIAYQLMHNIRDIDVIMGGGRKYMYPKNKTDVEYESDEKARGTRLDGLDLVDTWKSFKPRYKHSHFIWNRTELLTLDPHNVDYLLGLFEPGDMQYELNRNNVTDPSLSEMVVVAIQILRKNPKGFFLLVEGGRIDHGHHEGKAKQALHEAVEMDRAIGQAGSLTSSEDTLTVVTADHSHVFTFGGYTPRGNSIFGLAPMLSDTDKKPFTAILYGNGPGYKVVGGERENVSMVDYAHNNYQAQSAVPLRHETHGGEDVAVFSKGPMAHLLHGVHEQNYVPHVMAYAACIGANLGHCAPA
notes: human tissue non-specific alkaline phosphatase, amino acids 18-500, with the hypophosphatasia mutation T167M; HA signal peptide at the N-terminus; PreScission site before the tags; also called active site mutant TNAP^T167M; source: Expi293F, transfected, purified from the supernatant (Nickel-chelating resin, SEC)
stoichiometry N [2]: 2

B3: TNAP^R450C (dimeric interface mutant of hTNAP 18-500) (enzyme, human, UniProt P05186 18-500, looked up)
chain: LVPEKEKDPKYWRDQAQETLKYALELQKLNTNVAKNVIMFLGDGMGVSTVTAARILKGQLHHNPGEETRLEMDKFPFVALSKTYNTNAQVPDSAGTATAYLCGVKANEGTVGVSAATERSRCNTTQGNEVTSILRWAKDAGKSVGIVTTTRVNHATPSAAYAHSADRDWYSDNEMPPEALSQGCKDIAYQLMHNIRDIDVIMGGGRKYMYPKNKTDVEYESDEKARGTRLDGLDLVDTWKSFKPRYKHSHFIWNRTELLTLDPHNVDYLLGLFEPGDMQYELNRNNVTDPSLSEMVVVAIQILRKNPKGFFLLVEGGRIDHGHHEGKAKQALHEAVEMDRAIGQAGSLTSSEDTLTVVTADHSHVFTFGGYTPRGNSIFGLAPMLSDTDKKPFTAILYGNGPGYKVVGGERENVSMVDYAHNNYQAQSAVPLCHETHGGEDVAVFSKGPMAHLLHGVHEQNYVPHVMAYAACIGANLGHCAPA
notes: human tissue non-specific alkaline phosphatase, amino acids 18-500, with the hypophosphatasia mutation R450C; HA signal peptide at the N-terminus; PreScission site before the tags; also called dimeric interface mutant TNAP^R450C; source: Expi293F, transfected, purified from the supernatant (Nickel-chelating resin, SEC)
stoichiometry N [2]: 2

B4: human tissue non-specific alkaline phosphatase, amino acids 18-500 (hTNAP^18–500) (enzyme, UniProt P05186 18-500, looked up)
chain: LVPEKEKDPKYWRDQAQETLKYALELQKLNTNVAKNVIMFLGDGMGVSTVTAARILKGQLHHNPGEETRLEMDKFPFVALSKTYNTNAQVPDSAGTATAYLCGVKANEGTVGVSAATERSRCNTTQGNEVTSILRWAKDAGKSVGIVTTTRVNHATPSAAYAHSADRDWYSDNEMPPEALSQGCKDIAYQLMHNIRDIDVIMGGGRKYMYPKNKTDVEYESDEKARGTRLDGLDLVDTWKSFKPRYKHSHFIWNRTELLTLDPHNVDYLLGLFEPGDMQYELNRNNVTDPSLSEMVVVAIQILRKNPKGFFLLVEGGRIDHGHHEGKAKQALHEAVEMDRAIGQAGSLTSSEDTLTVVTADHSHVFTFGGYTPRGNSIFGLAPMLSDTDKKPFTAILYGNGPGYKVVGGERENVSMVDYAHNNYQAQSAVPLRHETHGGEDVAVFSKGPMAHLLHGVHEQNYVPHVMAYAACIGANLGHCAPA
modifications: N-glycosylation (asparagine residues, seen in the crystal structure)
notes: human tissue non-specific alkaline phosphatase (ALPL gene), amino acids 18-500, the mature form with the GPI-anchor amidated residue Ser 501 removed; HA signal peptide at the N-terminus for secretion; TEV protease site before the Flag and His tags, no cleavage described; Dimer dominates in solution, with higher oligomers; octamer in the crystals; The same range was also made in Expi293F from …
stoichiometry N [3]: 8
stoichiometry N [4]: 2

— PMC10329691, “The structural pathology for hypophosphatasia caused by malfunctional tissue non-specific alkaline phosphatase” (Nature Communications, 2023)
